System: Nc1ncnc2c1ncn2[C@@H]1O[C@H](COP(=O)(O)OP(=O)(O)OP(=O)(O)O)[C@@H](O)[C@H]1O
Assay: purified protein
Assay type: biochemical, Homo sapiens

IP6K1 (Homo sapiens)
Km: 353 ± 167 µM

Source: paper PMC6540952
